Reference: FireProtDB (doi:10.1016/s0167-4838(98)00243-x)
“And” between values parts separate entries of the source, which are not always exact repeats. Identical values can stand only once.

B1: Chitosanase, P33665 (parent)
chain: MHSQHRTARIALAVVLTAIPASLATAGVGYASTQASTAVKAGAGLDDPHKKEIAMELVSSAENSSLDWKAQYKYIEDIGDGRGYTGGIIGFCSGTGDMLELVQHYTDLEPGNILAKYLPALKKVNGSASHSGLGTPFTKDWATAAKDTVFQQAQNDERDRVYFDPAVSQAKADGLRALGQFAYYDAIVMHGPGNDPTSFGGIRKTAMKKARTPAQGGDETTYLNAFLDARKAAMLTEAAHDDTSRVDTEQRVFLKAGNLDLNPPLKWKTYGDPYVINS

Variants of: B1
Conditions: Streptomyces sp. (strain N174); pH 7; 42.7 °C; Thermal; CD; sodium phosphate 50 mM; transition: 3; reversible: yes(79%); structure 1CHK; whole UniProt chain shown

| Variant | ddG of mutation (higher = less stable) |
| --- | --- |
| MHSQHRTARIALAVVLTAIPASLATAGVGYASTQASTAVKAGAGLDDPHKKEIAMELVSSAENSSLDWKAQYKYIEDIGDGRGYTGGIIGFCSGTGDMLELVQHYTDLEPGNILAKYLPALKKVNGSASHSGLGTPFTKDWATAAKDTVFQQAQNDERDRVYFDPAVSQAKADGLRALGQFAYYDAIVMHGPGNDPTSFGGIRKTAMKKARTPAQGGDETTYLNAFLDARKAAMLTEAAHDDTSRVDTEQRVFLKAGNLDLNPPLKFKTYGDPYVINS [W267F] | 2.97 kcal/mol |

Same assay, conditions: Streptomyces sp. (strain N174); pH 7; 43.2 °C; Thermal; Fluorescence; sodium phosphate 50 mM; reversible: yes(81%); structure 1CHK; whole UniProt chain shown

| Variant | ddG of mutation (higher = less stable) |
| --- | --- |
| MHSQHRTARIALAVVLTAIPASLATAGVGYASTQASTAVKAGAGLDDPHKKEIAMELVSSAENSSLDWKAQYKYIEDIGDGRGYTGGIIGFCSGTGDMLELVQHYTDLEPGNILAKYLPALKKVNGSASHSGLGTPFTKDWATAAKDTVFQQAQNDERDRVYFDPAVSQAKADGLRALGQFAYYDAIVMHGPGNDPTSFGGIRKTAMKKARTPAQGGDETTYLNAFLDARKAAMLTEAAHDDTSRVDTEQRVFLKAGNLDLNPPLKFKTYGDPYVINS [W267F] | 2.51 kcal/mol |

Same assay, conditions: Streptomyces sp. (strain N174); pH 7; 52.2 °C; Thermal; CD; sodium phosphate 50 mM; transition: 3; reversible: yes(79%); structure 1CHK; whole UniProt chain shown

| Variant | ddG of mutation (higher = less stable) |
| --- | --- |
| MHSQHRTARIALAVVLTAIPASLATAGVGYASTQASTAVKAGAGLDDPHKKEIAMELVSSAENSSLDWKAQYKYIEDIGDGRGYTGGIIGFCSGTGDMLELVQHYTDLEPGNILAKYLPALKKVNGSASHSGLGTPFTKDWATAAKDTVFQQAQNDERDRVYFDPAVSQAKADGLRALGQFAYYDAIVMHGPGNDPTSFGGIRKTAMKKARTPAQGGDETTYLNAFLDARKAAMLTEAAHDDTSRVDTEQRVFLKAGNLDLNPPLKFKTYGDPYVINS [W267F] | 1.31 kcal/mol |

Same assay, conditions: Streptomyces sp. (strain N174); pH 7; Thermal; CD; sodium phosphate 50 mM; transition: 3; reversible: yes(79%); structure 1CHK; whole UniProt chain shown

| Variant | change of melting temperature, mutant - wild type (higher = more stable) | unfolding enthalpy (van 't Hoff) |
| --- | --- | --- |
| MHSQHRTARIALAVVLTAIPASLATAGVGYASTQASTAVKAGAGLDDPHKKEIAMELVSSAENSSLDWKAQYKYIEDIGDGRGYTGGIIGFCSGTGDMLELVQHYTDLEPGNILAKYLPALKKVNGSASHSGLGTPFTKDWATAAKDTVFQQAQNDERDRVYFDPAVSQAKADGLRALGQFAYYDAIVMHGPGNDPTSFGGIRKTAMKKARTPAQGGDETTYLNAFLDARKAAMLTEAAHDDTSRVDTEQRVFLKAGNLDLNPPLKFKTYGDPYVINS [W267F] | -6.8 °C and -6.4 °C | 135 kcal/mol and 65 kcal/mol |

Same assay, conditions: Streptomyces sp. (strain N174); pH 7; Thermal; Fluorescence; sodium phosphate 50 mM; reversible: yes(81%); structure 1CHK; whole UniProt chain shown

| Variant | Tm | change of melting temperature, mutant - wild type (higher = more stable) | unfolding enthalpy (van 't Hoff) |
| --- | --- | --- | --- |
| MHSQHRTARIALAVVLTAIPASLATAGVGYASTQASTAVKAGAGLDDPHKKEIAMELVSSAENSSLDWKAQYKYIEDIGDGRGYTGGIIGFCSGTGDMLELVQHYTDLEPGNILAKYLPALKKVNGSASHSGLGTPFTKDWATAAKDTVFQQAQNDERDRVYFDPAVSQAKADGLRALGQFAYYDAIVMHGPGNDPTSFGGIRKTAMKKARTPAQGGDETTYLNAFLDARKAAMLTEAAHDDTSRVDTEQRVFLKAGNLDLNPPLKFKTYGDPYVINS [W267F] | 37.3 °C | -5.9 °C | 132 kcal/mol |

Same assay, conditions: Streptomyces sp. (strain N174); pH 7; 42.7 °C; Thermal; CD; sodium phosphate 50 mM; transition: 3; reversible: yes(68%); structure 1CHK; whole UniProt chain shown

| Variant | ddG of mutation (higher = less stable) |
| --- | --- |
| MHSQHRTARIALAVVLTAIPASLATAGVGYASTQASTAVKAGAGLDDPHKKEIAMELVSSAENSSLDFKAQYKYIEDIGDGRGYTGGIIGFCSGTGDMLELVQHYTDLEPGNILAKYLPALKKVNGSASHSGLGTPFTKDFATAAKDTVFQQAQNDERDRVYFDPAVSQAKADGLRALGQFAYYDAIVMHGPGNDPTSFGGIRKTAMKKARTPAQGGDETTYLNAFLDARKAAMLTEAAHDDTSRVDTEQRVFLKAGNLDLNPPLKWKTYGDPYVINS [W68F W141F] | 5.8 kcal/mol |

Same assay, conditions: Streptomyces sp. (strain N174); pH 7; 43.2 °C; Thermal; Fluorescence; sodium phosphate 50 mM; reversible: yes(80%); structure 1CHK; whole UniProt chain shown

| Variant | ddG of mutation (higher = less stable) |
| --- | --- |
| MHSQHRTARIALAVVLTAIPASLATAGVGYASTQASTAVKAGAGLDDPHKKEIAMELVSSAENSSLDFKAQYKYIEDIGDGRGYTGGIIGFCSGTGDMLELVQHYTDLEPGNILAKYLPALKKVNGSASHSGLGTPFTKDFATAAKDTVFQQAQNDERDRVYFDPAVSQAKADGLRALGQFAYYDAIVMHGPGNDPTSFGGIRKTAMKKARTPAQGGDETTYLNAFLDARKAAMLTEAAHDDTSRVDTEQRVFLKAGNLDLNPPLKWKTYGDPYVINS [W68F W141F] | 8.03 kcal/mol |

Same assay, conditions: Streptomyces sp. (strain N174); pH 7; 52.2 °C; Thermal; CD; sodium phosphate 50 mM; transition: 3; reversible: yes(68%); structure 1CHK; whole UniProt chain shown

| Variant | ddG of mutation (higher = less stable) |
| --- | --- |
| MHSQHRTARIALAVVLTAIPASLATAGVGYASTQASTAVKAGAGLDDPHKKEIAMELVSSAENSSLDFKAQYKYIEDIGDGRGYTGGIIGFCSGTGDMLELVQHYTDLEPGNILAKYLPALKKVNGSASHSGLGTPFTKDFATAAKDTVFQQAQNDERDRVYFDPAVSQAKADGLRALGQFAYYDAIVMHGPGNDPTSFGGIRKTAMKKARTPAQGGDETTYLNAFLDARKAAMLTEAAHDDTSRVDTEQRVFLKAGNLDLNPPLKWKTYGDPYVINS [W68F W141F] | 1.51 kcal/mol |

Same assay, conditions: Streptomyces sp. (strain N174); pH 7; Thermal; CD; sodium phosphate 50 mM; transition: 3; reversible: yes(68%); structure 1CHK; whole UniProt chain shown

| Variant | change of melting temperature, mutant - wild type (higher = more stable) | unfolding enthalpy (van 't Hoff) |
| --- | --- | --- |
| MHSQHRTARIALAVVLTAIPASLATAGVGYASTQASTAVKAGAGLDDPHKKEIAMELVSSAENSSLDFKAQYKYIEDIGDGRGYTGGIIGFCSGTGDMLELVQHYTDLEPGNILAKYLPALKKVNGSASHSGLGTPFTKDFATAAKDTVFQQAQNDERDRVYFDPAVSQAKADGLRALGQFAYYDAIVMHGPGNDPTSFGGIRKTAMKKARTPAQGGDETTYLNAFLDARKAAMLTEAAHDDTSRVDTEQRVFLKAGNLDLNPPLKWKTYGDPYVINS [W68F W141F] | -11.4 °C and -8 °C | 155 kcal/mol and 60 kcal/mol |

Same assay, conditions: Streptomyces sp. (strain N174); pH 7; Thermal; Fluorescence; sodium phosphate 50 mM; reversible: yes(80%); structure 1CHK; whole UniProt chain shown

| Variant | Tm | change of melting temperature, mutant - wild type (higher = more stable) | unfolding enthalpy (van 't Hoff) |
| --- | --- | --- | --- |
| MHSQHRTARIALAVVLTAIPASLATAGVGYASTQASTAVKAGAGLDDPHKKEIAMELVSSAENSSLDFKAQYKYIEDIGDGRGYTGGIIGFCSGTGDMLELVQHYTDLEPGNILAKYLPALKKVNGSASHSGLGTPFTKDFATAAKDTVFQQAQNDERDRVYFDPAVSQAKADGLRALGQFAYYDAIVMHGPGNDPTSFGGIRKTAMKKARTPAQGGDETTYLNAFLDARKAAMLTEAAHDDTSRVDTEQRVFLKAGNLDLNPPLKWKTYGDPYVINS [W68F W141F] | 31.2 °C | -12 °C | 204 kcal/mol |
